According to paper PMC4081071:

T1: GLD-1 KH-QUA2 (Caenorhabditis elegans, UniProt Q17339 195-336)
T1 sequence: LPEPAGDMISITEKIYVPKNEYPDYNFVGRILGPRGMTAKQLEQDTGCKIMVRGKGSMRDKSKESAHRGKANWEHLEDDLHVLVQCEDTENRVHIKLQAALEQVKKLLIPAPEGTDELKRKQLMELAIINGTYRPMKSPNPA

T2: GLD-1 KH-QUA2 P228A (Caenorhabditis elegans, UniProt Q17339 195-336, P228A)
T2 sequence: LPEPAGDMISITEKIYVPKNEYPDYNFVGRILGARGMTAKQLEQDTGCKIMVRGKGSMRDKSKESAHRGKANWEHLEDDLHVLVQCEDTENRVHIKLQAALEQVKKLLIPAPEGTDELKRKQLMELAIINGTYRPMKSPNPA

T3: GLD-1 KH-QUA2 P228S (Caenorhabditis elegans, UniProt Q17339 195-336, P228S)
T3 sequence: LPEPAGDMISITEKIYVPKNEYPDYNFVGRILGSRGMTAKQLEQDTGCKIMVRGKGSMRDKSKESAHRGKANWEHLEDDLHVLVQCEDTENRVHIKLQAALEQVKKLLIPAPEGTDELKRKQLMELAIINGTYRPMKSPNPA


Tests used:
GLD-1 KH-QUA2 [1] = target: T1, GLD-1 KH-QUA2; experiment: NMR HSQC titration
GLD-1 KH-QUA2 [2] = target: T1, GLD-1 KH-QUA2; experiment: ITC
GLD-1 KH-QUA2 P228A = target: T2, GLD-1 KH-QUA2 P228A; experiment: ITC
GLD-1 KH-QUA2 P228S = target: T3, GLD-1 KH-QUA2 P228S; experiment: NMR HSQC titration

Binder | binding result (GLD-1 KH-QUA2 [1]) | Kd (GLD-1 KH-QUA2 [2]) | binding signal (GLD-1 KH-QUA2 P228A) | binding result (GLD-1 KH-QUA2 P228S)
AUUUAAUUU (ssRNA) [tra-2 TGE weak site] | binds | – | – | –
CUACUCAUAU (ssRNA) [tra-2 TGE strong site] | – | 0.061 ± 0.003 µM | 19 fold decrease in affinity vs wild type | binds
